Assay results: doi:10.64898/2025.12.03.692196

Experiments:
[1] = target: YRDC_(A41V), GAMOS-associated variant of the ΔN43 construct (human); assay: native gel or EMSA
[2] = target: YRDC_(A41V), GAMOS-associated variant of the ΔN43 construct (human); assay: mass photometry
[3] = target: YRDC_(ΔL222), GAMOS-associated variant of the ΔN43 construct (human); assay: native gel or EMSA
[4] = target: YRDC_(ΔL222), GAMOS-associated variant of the ΔN43 construct (human); assay: mass photometry
[5] = target: YRDC_(I178T), GAMOS-associated variant of the ΔN43 construct (human); assay: mass photometry
[6] = target: human YRDC lacking the N-terminal 43 residues (ΔN43 construct) (human); assay: native MS
[7] = target: human YRDC lacking the N-terminal 43 residues (ΔN43 construct) (human); assay: native gel or EMSA
[8] = target: human YRDC lacking the N-terminal 43 residues (ΔN43 construct) (human); assay: mass photometry

Substance: YRDC_(A41V), GAMOS-associated variant of the ΔN43 construct (enzyme)
- stoichiometry N [1]: 2
- tetramer fraction [2]: 24%
- trimer fraction [2]: 28%

Substance: YRDC_(ΔL222), GAMOS-associated variant of the ΔN43 construct (enzyme)
- stoichiometry N [3]: 2
- tetramer fraction [4]: 27%
- trimer fraction [4]: 44%

Substance: YRDC_(I178T), GAMOS-associated variant of the ΔN43 construct (enzyme)
- dimer fraction [5]: 19%

Substance: human YRDC lacking the N-terminal 43 residues (ΔN43 construct) (enzyme)
- stoichiometry N [6]: 2
- stoichiometry N [7]: 2
- stoichiometry N [8]: 2
